Measured values from patent US20140256613A1.

Columns and labels:
[1] = target: full-length human TLR4 expressed as fusion protein with GAL4 (pTLR4) (human); experiment: cell-based or functional assay
[2] = target: full-length human TLR4 expressed as fusion protein with GAL4 (pTLR4) (human); experiment: flow cytometry of pSPA + pTLR4 transfected HEK293 cells stained with isotype control antibody [A)(iii]
[3] = target: full-length human TLR4 expressed as fusion protein with GAL4 (pTLR4) (human); experiment: flow cytometry of pSPA-mutant + pTLR4 transfected HEK293 cells stained with isotype control antibody [A)(iii]

Substance | LPS-induced NF-κB luciferase reporter activity in co-transfected HEK293 cells [1] | % positive cells in region R [2] | % positive cells in region R [3]
SPA-mutant lacking SPA4 peptide region, expressed as fusion protein with VP16 (pSPA-mutant) (from UniProt Q8IWL2 21-248) | 44 RLU | – | –
(IC) (antibody) | – | 1.06% | 1.65%
